In patent publication US12098186:

Target: SARS-CoV-2 receptor-binding domain (RBD) of the spike protein (SARS-CoV-2) (UniProt P0DTC2)

Bamlanivimab/ LY-CoV555 (antibody)
Kd: 3.5 nM
